Earlier results on one substance are cited in PMC3817581.

Among the targets are Asp27 (UniProt position 156, PLCGSDNKTYG); Asp7 (UniProt position 136, AAVSVDCSEYP); Glu43 (UniProt position 172, CNAVVESNGTL); Glu19 (UniProt position 148, PACTLEYRPLC); Glu10 (UniProt position 139, SVDCSEYPKPA).
What all share (conditions): not stated in this article

In the case of “Turkey ovomucoid third domain (OMTKY3) (Meleagris gallopavo)”, the pKa is reported as 2.2 with Asp27; 2.5 with Asp7; 4.8 in the data set with Glu43; 3.2 in the data set with Glu19; 4.1 with Glu10.
